First the molecules themselves.
B1: TPR t1 (parent)
chain: GACCAAUCUGCCCUCAGAGCUCGAGAACAUCUUCGGAUGCAGAGGAGGCAGGCUUCGGUGGCGCGAUAGCGCCAACGUCCUCAACCUCCAAUGCAUCCCACCACAUGAUGAUGCCUGAAGAGCCUUGGUUUUUUG

Data on 83 variants can be found in the RNAGym collection of RNA variant scans (doi:10.1073/pnas.2313332121).

The variants in the data set derive from B1. In words: polymerase ribozyme fitness, log enrichment relative to wild type (log ratio); higher = more active; in vitro selection for triplet polymerase activity. The method in brief:
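Mutant libraries for each subunit of a heterodimeric triplet polymerase ribozyme were made by PCR and then transcribed. Each library underwent one round of in vitro selection in triplicate: annealing with a biotinylated primer, the partner subunit and triplets, frozen incubation at −7 °C, gel excision of extended constructs, streptavidin-bead capture and RT-PCR. Input and output libraries were Illumina-sequenced, and only genotypes with ≥10 input reads and ≥1 read per output were kept. Fitness is the logarithm, base 2, of genotype enrichment over wild-type enrichment, computed from inverse-variance-weighted replicate averages.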
On to A84G C98A, for which the “polymerase ribozyme fitness (log ratio)” value was -6.26.
For C82G C102A G120A G122U, the “polymerase ribozyme fitness (log ratio)” value was -2.05.
Under C82U C114U stands -2.08; under C89A A119U, -1.88.
As for C86A C104A C124G G128U U133A, the figure is -1.59.
Consider A91C C114U, for which the “polymerase ribozyme fitness (log ratio)” value was -3.62.
In the case of U87A C89G, the “polymerase ribozyme fitness (log ratio)” value was -2.18.
Under A91U G120A stands -0.951; under A91G A100C, -2.5; under C89U U126C, -1.11.
In the case of U87A A105U, the “polymerase ribozyme fitness (log ratio)” value is -1.78.
Under A91G C98U stands -1.4.
As for A90C C101A, the figure is -2.32; as for C89A G113C G117A, -5.73.
As for C85U U112C, the figure is 1.15; as for C85U C101G C115A, -2.93; as for C89U G128C, -3.21.
For C86U C89U, the “polymerase ribozyme fitness (log ratio)” value was -0.118.
Consider C82G U116G, for which the “polymerase ribozyme fitness (log ratio)” value is -2.05.
Under C86U U130C stands 0.0697.
As for C85G U106A, the figure is -1.05; as for A84G G93U U125G, -2.63; as for G93A U112A, 0.918.
Take A84C C124U: the “polymerase ribozyme fitness (log ratio)” value stood at 1.55.
As for U87G U130G, the figure is -0.21.
Under C86U G117A stands -1.56; under U81G U129A, -5.4; under C85A C94G G110A, -3.12.
Turning to C82U U96A U109C, the “polymerase ribozyme fitness (log ratio)” value is -5.99.
As for C82A C86G, the figure is -1.3.
Under C82A C86A stands -0.787.
For C88A A105C, the “polymerase ribozyme fitness (log ratio)” value is -2.46.
Under A90C G107C G110C stands -6.73; under C94A C102U, -4.66; under C86A A121G, 1.66.
Under C88U G122A stands -1.42; under A84U C124A, 1.73; under A83C C115G, -1.92.
Under C88G U96A stands -2.61; under C88A A95U C102A G120A, -3.23; under C82U G113C, -2.19.
Turning to C82U G113U, the “polymerase ribozyme fitness (log ratio)” value was -2.32.
As for U87C G117A, the figure is -1.27; as for U87A C99U G110U, -5.56; as for C85A C94A A111U, -5.51.
Under C82A C115A stands -1.19; under U87C C94A, -0.939.
Under C88A C99U G113A C114U stands -5.9.
For the variant U92A G128U, the “polymerase ribozyme fitness (log ratio)” value is -4.84.
Regarding A91C A111C, the “polymerase ribozyme fitness (log ratio)” value is -2.03.
Under C88U G120A stands -0.0108; under C89U U133G, -0.403.
Under G93C G113A C124G stands -0.942.
C94A A95C U131G: the “polymerase ribozyme fitness (log ratio)” value is -2.37.
As for C89A C97U, the figure is -2.16; as for A91G C104U A118C C123G C124A U126A, -0.422.
As for U92A U129G, the figure is -4.28; as for U92A U129A, -4.29; as for A90G C104U, -0.0421.
Under U87A U106A stands 0.566; under A84U C114U, -2.03; under A84U G128C, -2.56.
For A83C C114G, the “polymerase ribozyme fitness (log ratio)” value is -2.24.
Consider C82A C94U C98U U106C, for which the “polymerase ribozyme fitness (log ratio)” value was -2.21.
On to U92G C101U A103U U109A, for which the “polymerase ribozyme fitness (log ratio)” value was -6.74.
With A91G C115U, the “polymerase ribozyme fitness (log ratio)” value was -1.36.
As to C82G U112G, the “polymerase ribozyme fitness (log ratio)” value was -2.98.
G93U A111G: the “polymerase ribozyme fitness (log ratio)” value was -0.352.
Under A91U C102U stands -4.75.
Under U81G C104U G122A stands -4.33; under G93C U131G, -1.28.
G93C U131A: the “polymerase ribozyme fitness (log ratio)” value is -1.05.
G93A G113A: the “polymerase ribozyme fitness (log ratio)” value is -0.607.
G93U C123U: the “polymerase ribozyme fitness (log ratio)” value worked out at 0.528.
Under U87G C123A stands 0.557; under A90U A100U, -2.77.
Turning to A91U G127U, the “polymerase ribozyme fitness (log ratio)” value is -3.19.
Under A91G G113U stands -3.39; under C86A G110U, -2.79.
As for C86G U126C, the figure is -1.74; as for C88U C101U, -0.588.
C82U A108U A121G: the “polymerase ribozyme fitness (log ratio)” value was -4.59.
Under G93U A121U U131G stands 0.33.
